Experimental data: the supplement of paper PMC12764529
± gives the half width of the 95% confidence interval.

Experiments:
[1] = folding stability dG unfold from chymotrypsin proteolysis; higher = more stable
How it was run: (§1)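 Mini-proteins designed to be under 80 residues and free of cysteine were carried in a PA-tagged cDNA display construct and digested with trypsin and with chymotrypsin. Each protease was applied at 11 threefold-diluted concentrations, alongside a no-protease condition, before sequencing. K50 came from Bayesian fitting of the sequencing counts, and unfolding free energy was obtained by comparing it with a sequence-predicted unfolded-state K50 and a shared folded-state K50, for each protease separately or for both together. Designs were retained only if their AlphaFold2 dimer inter-PAE exceeded 15.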

[2] = folding stability dG unfold from trypsin proteolysis; higher = more stable
How it was run: as §1

[3] = folding stability dG unfold (combined trypsin and chymotrypsin); higher = more stable
How it was run: as §1

Sequence | folding stability dG unfold [1] | folding stability dG unfold [2] | folding stability dG unfold [3]
SDPNKPWTAEEIAKIIEEKILEEFDVEEIIPKELKVFPKEGTVKVKMLVKYKGEPGKYFELEVEISPEELSA [r9_1002_TrMRF] | 2.9 ± 0.038 kcal/mol | 1.58 ± 0.037 kcal/mol | 2.52 ± 0.081 kcal/mol
SAGGSAGGSAMTFFVAVVKTETRVLPDGSLETRSSIEVKPVPAIPAEDLIKKLGLPLEDIASAGGSAGGSAG [r3_338_TrMRF] | 3.14 ± 0.053 kcal/mol | 2.13 ± 0.041 kcal/mol | 2.61 ± 0.14 kcal/mol
SAGMEITTVTLPDGTKLITITLPVPGGPSITADVPYDPATGKVTLLKITGEDPALEALAKEAVEKLKKESAG [r5_266_JUSTAS] | 1.17 ± 0.053 kcal/mol | 0.68 ± 0.032 kcal/mol | 1.09 ± 0.11 kcal/mol
SAMIVKDLKTKEEIKKVLEEIAKKLGYPNVTPEEAEEILKKIGVKILSIEKNPKNPEKYIIKIKIEKPKSAG [r14_678_JUSTAS] | 2.34 ± 0.033 kcal/mol | 2.23 ± 0.1 kcal/mol | 2.29 ± 0.14 kcal/mol
SAGGSAGGSAGEKTFVIDEVKITSVERLPDGSLRVTIEVRLPNGETLTLTLTLPPGAVLESAGGSAGGSAGG [r11_429_TrROS_Hall] | 3.19 ± 0.042 kcal/mol | 2.84 ± 0.11 kcal/mol | 3.05 ± 0.07 kcal/mol
SAGGSAGGSAGGKKLTFKAEIVSEEEIEINGKKYRIFKVKVTLPDGSKLTLTVIVELDDLSAGGSAGGSAGG [r7_846_TrROS_Hall] | 4.22 ± 0.056 kcal/mol | 2.83 ± 0.036 kcal/mol | 3.84 ± 0.096 kcal/mol
SAGGSAGGSADWQKLEYPFPPGMPLDNIKEELRDLFPGKKPTIEIDKIEPHNGQYWIKITVKSAGGSAGGSA [r18_360_TrROS] | 0.0785 ± 0.15 kcal/mol | 0.42 ± 0.047 kcal/mol | 0.291 ± 0.075 kcal/mol
SAGGSAGGSAGMNKKGKYTVIEELVINPKTNYLFKKKVTIYPDGKIEVKSELLGPILPTESAGGSAGGSAGG [r11_226_TrMRF] | 1.4 ± 0.067 kcal/mol | 0.336 ± 0.051 kcal/mol | 1.03 ± 0.06 kcal/mol
SAGGSAGGSAGGMTLEIEINGLKVRIEFDEETKELRIEVEPAPPPVVVYEKEKLEEEEESAGGSAGGSAGGS [r10_724_TrROS_Hall] | 1.52 ± 0.05 kcal/mol | 1.56 ± 0.078 kcal/mol | 1.46 ± 0.18 kcal/mol
MITPEEAIELAKEKAKELLEKAGPGTPSVVVEIKAEDGRVVKVEVDPVKKVINITVYDKGGKKVAEKIIEES [r1_370_JUSTAS] | 2.67 ± 0.099 kcal/mol | 2.06 ± 0.1 kcal/mol | 2.38 ± 0.11 kcal/mol
SKNKVEITIPMPYSQAREIARQLGLPPEKFKDPKDLVDWLKDLFPKDVKIRIQPMKPVTEEERRARQNGKSA [r9_74_TrROS] | 1.34 ± 0.076 kcal/mol | 0.817 ± 0.12 kcal/mol | 1.12 ± 0.085 kcal/mol
SAGMEVKVETVTIEIEVDGKKIEIKVVRVEVRNEDGSIYEFTFIEITVPEDVSEEELRKLLEELGLEPESAG [r5_486_TrROS_Hall] | 4.1 ± 0.31 kcal/mol | 2.64 ± 0.12 kcal/mol | 3.77 ± 0.29 kcal/mol
SAGGSAGGSAGEKTIKIKVKDKNGKTKTITLKIKNAKFKPGQKIEIVKVNKNGSLEIKLKSAGGSAGGSAGG [r11_733_TrROS_Hall] | 1.82 ± 0.087 kcal/mol | 0.678 ± 0.059 kcal/mol | 1.6 ± 0.24 kcal/mol
SAGGSAGGSAGGDPDDKPPKIEWKPIEYSFYLPNGWMISDEIWVFPDNGAILISIEIMPSAGGSAGGSAGGS [r10_881_TrROS] | 3.67 ± 0.31 kcal/mol | 2.48 ± 0.21 kcal/mol | 3.37 ± 0.95 kcal/mol
SAGGSDRVLVPAGPSDYDVLVVVTPGPGDLVGVDALVIHPDGTPLAVRGVLDPTTGGISPVAVDPLSAGGSA [r2_402_TrMRF] | 0.243 ± 0.051 kcal/mol | 0.28 ± 0.024 kcal/mol | 0.258 ± 0.038 kcal/mol
SAGGSMTTITLTLEFELDENGEVDPEKIEAEAEKIKEENPEIKELTVEVKRDPNSNKITVTVTAKVPSAGGS [r8_258_JUSTAS] | 3.29 ± 0.19 kcal/mol | 2.79 ± 0.2 kcal/mol | 3.06 ± 0.18 kcal/mol
SAGGSAGGMVIKIITNAPSLEEAEEIAKRVAAELRERFGGPDVEIVLDVEVIPLPPVPTEDGKPSAGGSAGG [r6_182_TrMRF] | 1.97 ± 0.16 kcal/mol | 1.38 ± 0.053 kcal/mol | 1.82 ± 0.092 kcal/mol
SAGGSAGGSAGMVLPRPDGSLVVITEHPDGTVTVTFAPPDKPITIEVPKEEPVDIRVFPLSAGGSAGGSAGG [r11_164_TrMRF] | 0.324 ± 0.087 kcal/mol | 1.39 ± 0.043 kcal/mol | 1.02 ± 0.046 kcal/mol
SAGGSAGGSKAGQPIEGPVKIKFTSNGKPHEIDVEVYVLPPGNLIIYFPDESIMLPADNIEIESAGGSAGGS [r12_790_TrROS] | 1.91 ± 0.078 kcal/mol | 1.09 ± 0.072 kcal/mol | 1.6 ± 0.063 kcal/mol
SAGMVVKFVSPSKKYVAVVYFSPDGKYRTALLYDASGELVSVIPSSVPVEELLEAFPDATVEVYPLDPPSAG [r5_314_TrMRF] | 2.59 ± 0.056 kcal/mol | 1.95 ± 0.041 kcal/mol | 2.34 ± 0.1 kcal/mol
SAGMMVKVEIEFPLTLTTTEKVGTGPNGIPVFETREEIVVITFRATVPENPEEVAAAKEEAKAVAEALSSAG [r14_223_JUSTAS] | 2.08 ± 0.11 kcal/mol | 1.8 ± 0.042 kcal/mol | 1.89 ± 0.2 kcal/mol
